The record followed here is publication PMC7801473 (2021).

Sequence of MBP-ASC^CARD (human) (Q9ULZ3 95-195): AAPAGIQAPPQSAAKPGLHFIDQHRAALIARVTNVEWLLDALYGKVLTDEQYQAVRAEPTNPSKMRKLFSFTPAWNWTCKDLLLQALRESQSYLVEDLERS

In the first assay the target is ASC^CARD (self-interaction; state of second copy not shown). Kind of assay: M2H (mammalian two-hybrid, luciferase). The note with it: HEK293T cells; luciferase normalized to Renilla; parent: est. 4.2; read off a plot.
Turning to “ASC^CARD (M2H fusion) (from UniProt Q9ULZ3-1) D134K”, the response (fold of negative control) is 1.4.

As for “ASC^CARD (M2H fusion) (from UniProt Q9ULZ3-1) D143A; E144A”, the response (fold of negative control) stood at 1.2.

As to “ASC^CARD (M2H fusion) (from UniProt Q9ULZ3-1) N128A; E130R”, the response (fold of negative control) worked out at 1.2.

Regarding “ASC^CARD (M2H fusion) (from UniProt Q9ULZ3-1) R119D”, the response (fold of negative control) turned out to be 1.3.

In the case of “ASC^CARD (M2H fusion) (from UniProt Q9ULZ3-1) R125A; T127A”, the response (fold of negative control) was found to be 1.2.

Regarding “ASC^CARD (M2H fusion) (from UniProt Q9ULZ3-1) R160E”, the response (fold of negative control) stood at 1.2.

Regarding “ASC^CARD (M2H fusion) (from UniProt Q9ULZ3-1) W169G; N170A”, the response (fold of negative control) was 1.2.

The target of the next assay is NLRP1^CARD (human) (UniProt Q9C000). Kind of assay: SEC-MALS; Superdex 200 10/30, 500 mM NaCl, 20 mM CHES-HCl pH 9.0, 500 uL at 0.5 mg/mL, 0.5 mL/min; monomer to dimer.
Settings: not given
Background: Size exclusion chromatography separates by hydrodynamic size, large species first.
For “NLRP1^CARD (from UniProt Q9C000-1 1397-1462) (domain or fragment)”, the stoichiometry N (as a rule, the number of molecules, sites or subunits per partner or assembly) came to 2.

Another assay addresses MBP-ASC^CARD (human) (UniProt Q9ULZ3). Put plainly: SEC; His-tagged MBP-ASC^CARD incubated with a threefold concentration of untagged NLRP1^CARD for 4 h, first purified by Ni-affinity chromatography, then Superdex gel filtration; complex in the void (~9 mL); also run at 0.15, 0.5 and 1.0 M NaCl (complex decreased with salt); ratio from gray scales of the PAGE gel.
Settings: not given
As to “NLRP1^CARD (from UniProt Q9C000-1 1397-1462) (domain or fragment)”, the stoichiometry N (NLRP1^CARD : ASC^CARD) is 0.5.
